A word on the Kd: it is a measure of binding affinity in units of concentration.

The text below walks through data of paper PMC6890786, “Pseudomonas aeruginosa uses multiple receptors for adherence to laminin during infection of the respiratory tract and skin wounds” (Scientific Reports, 2019).

Common to all, as to assay: BLI; OctetRed96; bacterial proteins immobilised on AR2G sensors by amino coupling; laminin-111 as analyte, 1.63 to 100 nM in PBS; 30 °C
Test [1] concerns the target recombinant OprG of P. aeruginosa PAO1, 6xHis-tagged (P. aeruginosa PAO1) (UniProt Q9HWW1).
The target in test [2] is recombinant PA3923 of P. aeruginosa PAO1, 6xHis-tagged (P. aeruginosa PAO1) (UniProt Q9HX90).
The target of test [3] is T1, Engelbreth-Holm-Swarm murine sarcoma laminin-111 (mouse, UniProt P19137 25-3083; P02469 22-1786; P02468 34-1607).
T1 construct: laminin alpha chain of laminin-111 (laminin subunit alpha-1), mouse; carries LG1-5 at its C-terminal end; laminin beta chain of laminin-111 (laminin subunit beta-1), mouse; laminin gamma chain of laminin-111 (laminin subunit gamma-1), mouse; Heterotrimer alpha/beta/gamma; Labelled with colloidal gold for the TEM experiment; also called L2020; source: bought: Sigma-Aldrich (L2020), …
The settings on record: both partners purified.

In the case of “Engelbreth-Holm-Swarm murine sarcoma laminin-111 (from UniProt P19137 25-3083; P02469 22-1786; P02468 34-1607) (complex)”, the values for the Kd in test [1] and in test [2] were 4.7 nM and 6.9 nM, respectively.

B1: recombinant EstA of P. aeruginosa PAO1, 6xHis-tagged (natural protein)
chain: APSPYSTLVVFGDSLSDAGQFPDPAGPAGSTSRFTNRVGPTYQNGSGEIFGPTAPMLLGNQLGIAPGDLAASTSPVNAQQGIADGNNWAVGGYRTDQIYDSITAANGSLIERDNTLLRSRDGYLVDRARQGLGADPNALYYITGGGNDFLQGRILNDVQAQQAAGRLVDSVQALQQAGARYIVVWLLPDLGLTPATFGGPLQPFASQLSGTFNAELTAQLSQAGANVIPLNIPLLLKEGMANPASFGLAADQNLIGTCFSGNGCTMNPTYGINGSTPDPSKLLFNDSVHPTITGQRLIADYTYSLLSAPWELTLLPEMAHGTLRAYQDELRSQWQADWENWQNVGQWRGFVGGGGQRLDFDSQDSAASGDGNGYNLTLGGSYRIDEAWRAGVAAGFYRQKLEAGAKDSDYRMNSYMASAFVQYQENRWWADAALTGGYLDYDDLKRKFALGGGERSEKGDTNGHLWAFSARLGYDIAQQADSPWHLSPFVSADYARVEVDGYSEKGASATALDYDDQKRSSKRLGAGLQGKYAFGSDTQLFAEYAHEREYEDDTQDLTMSLNSLPGNRFTLEGYTPQDHLNRVSLGFSQKLAPELSLRGGYNWRKGEDDTQQSVSLALSLDF
notes: EstA, autotransporter esterase of P. aeruginosa PAO1; open reading frame amplified from PAO1 genomic DNA and cloned into pET26(b)+; Labelled with 10 nm colloidal gold for TEM; source: E. coli BL21(DE3), purified (Ni-NTA)
In test [3], B1 gave a Kd of 1.7 nM.

B2: recombinant OprD of P. aeruginosa PAO1, 6xHis-tagged (natural protein)
chain: DAFVSDQAEAKGFIEDSSLDLLLRNYYFNRDGKSGSGDRVDWTQGFLTTYESGFTQGTVGFGVDAFGYLGLKLDGTSDKTGTGNLPVMNDGKPRDDYSRAGGAVKVRISKTMLKWGEMQPTAPVFAAGGSRLFPQTATGFQLQSSEFEGLDLEAGHFTEGKEPTTVKSRGELYATYAGETAKSADFIGGRYAITDNLSASLYGAELEDIYRQYYLNSNYTIPLASDQSLGFDFNIYRTNDEGKAKAGDISNTTWSLAAAYTLDAHTFTLAYQKVHGDQPFDYIGFGRNGSGAGGDSIFLANSVQYSDFNGPGEKSWQARYDLNLASYGVPGLTFMVRYINGKDIDGTKMSDNNVGYKNYGYGEDGKHHETNLEAKYVVQSGPAKDLSFRIRQAWHRANADQGEGDQNEFRLIVDYPLSIL
notes: OprD (porin D, OccD1) of P. aeruginosa PAO1; open reading frame amplified from PAO1 genomic DNA and cloned into pET26(b)+; Labelled with 10 nm colloidal gold for TEM; also called porin D; OccD1; source: E. coli BL21(DE3), purified (Ni-NTA)
B2: the Kd in test [3] amounted to 22 nM.

B3: recombinant Paf of P. aeruginosa, 6xHis-tagged (natural protein)
chain: EDGKRLRIGITLHPYYSYVSNIVGDKAEVVPLIPAGFNPHAYEPRAEDIKRIGTLDVVVLNGVGHDDFAERMIASSEKPGIPVIEANAKVPLLAATGMAARGAGKVVNPHTFLSISASITQVNTIARELGKLDPANAKAYTRNARAYAKRLRALRADALARLNKAPAADFRVATIHGAYDYLLREFGLEVTAVVEPAHGIEPSPSQLKKTIDQLKALDVKVIFSEIDFPSTYVETIQRESGVKLYSLSHISYGDYSAGKYEEEMARNLDTVVRAIQESGA
Consider B3, for which the Kd in test [3] came to 2.8 nM.
